The record followed here is paper PMC10870365, “Dissection of protein and RNA regions required for SPEN binding to XIST A-repeat RNA”.

Residue numbers refer to the chain shown, from its start.

Data set [1] deals with T1, SPEN RRM 2-4 mut3 F282A;K311A;Y319A;F321A;K353A (Homo sapiens) (UniProt Q96T58).
T1 sequence: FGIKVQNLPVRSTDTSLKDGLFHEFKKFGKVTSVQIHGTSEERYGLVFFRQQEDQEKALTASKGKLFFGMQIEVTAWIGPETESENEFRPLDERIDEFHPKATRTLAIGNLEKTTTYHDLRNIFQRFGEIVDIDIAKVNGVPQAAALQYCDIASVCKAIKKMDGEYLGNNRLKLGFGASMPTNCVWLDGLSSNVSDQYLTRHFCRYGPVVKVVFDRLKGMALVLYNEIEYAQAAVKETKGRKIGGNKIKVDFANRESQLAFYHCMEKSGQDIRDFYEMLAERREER
The experiment in a line: EMSA. Conditions: EMSA: 20 mM Tris-HCl pH 7.5, 150 mM KCl, 5 mM MgCl2, 10% glycerol, room temperature 30 min, 2 nM each labeled RNA (multiplexed), 4.5% TBE native gel.

The target of data set [2] is T2, SPEN RRM 2-4 (Homo sapiens) (UniProt Q96T58).
T2 sequence: T1 sequence with A107F, A136K, A144Y, A146F, A178K
Description: EMSA. As to conditions: EMSA: 20 mM Tris-HCl pH 7.5, 150 mM KCl, 5 mM MgCl2, 10% glycerol, room temperature 30 min, 2 nM each labeled RNA (multiplexed), 4.5% TBE native gel.

Data set [3] concerns the target T3, SPEN RRM 1-4 (Homo sapiens) (UniProt Q96T58).
T3 sequence: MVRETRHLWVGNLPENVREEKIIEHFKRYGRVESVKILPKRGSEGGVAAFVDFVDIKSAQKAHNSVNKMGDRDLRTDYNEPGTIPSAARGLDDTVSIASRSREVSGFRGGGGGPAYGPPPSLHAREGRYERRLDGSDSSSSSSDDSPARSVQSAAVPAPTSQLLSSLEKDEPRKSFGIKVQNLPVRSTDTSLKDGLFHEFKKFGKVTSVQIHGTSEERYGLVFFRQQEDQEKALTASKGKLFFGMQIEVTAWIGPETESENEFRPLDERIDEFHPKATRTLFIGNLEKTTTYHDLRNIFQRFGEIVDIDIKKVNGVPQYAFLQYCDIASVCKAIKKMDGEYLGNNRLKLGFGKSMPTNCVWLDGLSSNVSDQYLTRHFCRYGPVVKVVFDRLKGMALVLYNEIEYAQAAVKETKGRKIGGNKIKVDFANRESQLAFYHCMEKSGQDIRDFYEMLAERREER
The experiment in a line: EMSA. As to conditions: EMSA: 20 mM Tris-HCl pH 7.5, 150 mM KCl, 5 mM MgCl2, 10% glycerol, room temperature 30 min, 2 nM each labeled RNA (multiplexed), 4.5% TBE native gel.

The target of data set [4] is T4, SPEN RRM 1-4 (Homo sapiens, UniProt Q96T58).
T4 sequence: T3 sequence
The experiment in a line: EMSA; Hill 1; EMSA: 20 mM Tris-HCl pH 7.5, 150 mM KCl, 5 mM MgCl2, 10% glycerol, room temperature 30 min, 2 nM each labeled RNA (multiplexed), 4.5% TBE native gel. Conditions: protein: recombinant, tags: 6xHis-MBP-TEV at N-terminus, removed by TEV cleavage.

Data set [5] has as its target T4, SPEN RRM 1-4. Description: EMSA; Hill 2; EMSA: 20 mM Tris-HCl pH 7.5, 150 mM KCl, 5 mM MgCl2, 10% glycerol, room temperature 30 min, 2 nM each labeled RNA (multiplexed), 4.5% TBE native gel. Conditions: protein: recombinant; tags: 6xHis-MBP-TEV at N-terminus, removed by TEV cleavage; label: internal fluorophore-UTP.
Data set [6] addresses T4, SPEN RRM 1-4. The experiment in a line: EMSA; Hill 5; EMSA: 20 mM Tris-HCl pH 7.5, 150 mM KCl, 5 mM MgCl2, 10% glycerol, room temperature 30 min, 2 nM each labeled RNA (multiplexed), 4.5% TBE native gel. As to conditions: protein: recombinant; tags: 6xHis-MBP-TEV at N-terminus, removed by TEV cleavage; label: internal fluorophore-UTP.
Data set [7] deals with T5, SPEN RRM 2-4 (Homo sapiens, UniProt Q96T58).
T5 sequence: T1 sequence with A107F, A136K, A144Y, A146F, A178K
The experiment in a line: EMSA; Hill 10; EMSA: 20 mM Tris-HCl pH 7.5, 150 mM KCl, 5 mM MgCl2, 10% glycerol, room temperature 30 min, 2 nM each labeled RNA (multiplexed), 4.5% TBE native gel. Conditions: protein: recombinant; tags: 6xHis-MBP-TEV at N-terminus, removed by TEV cleavage; label: internal Cy3-, Cy5- or fluorescein-UTP.

The target of data set [8] is T6, SPEN RRM 2-4 mut3 (Homo sapiens, UniProt Q96T58, F282A;K311A;Y319A;F321A;K353A).
T6 sequence: T1 sequence
The experiment in a line: EMSA; Hill 2; text: loss of binding (Kd >1000 nM); EMSA: 20 mM Tris-HCl pH 7.5, 150 mM KCl, 5 mM MgCl2, 10% glycerol, room temperature 30 min, 2 nM each labeled RNA (multiplexed), 4.5% TBE native gel. As to conditions: protein: recombinant; tags: 6xHis-MBP-TEV at N-terminus, removed by TEV cleavage; label: internal Cy3-, Cy5- or fluorescein-UTP.

The mark [9] stands for this setting: label: internal fluorophore-UTP.

For “GUACCAGGUAUGUGAUGACAUCAGCCGACGCCUGGCACUGCUGCAGGAACAGUGGGCUGGAGGAAAGUUGUCAAUACCUGUAAAGAAGAGAAUGGCUCUACUGGUGCAAGAGCUUUCAAGCCACCGGUGGGACGCAGCAGAUGACAUCCACCGCUCCCUCAUGGUUGACCAUGUGACUGAGGUCAGUCAGUGGAUGGUAGGAGUUAAAAGAUUAAUUGCAGAAAAGAGGAGUCUGUUUUCAGAGGAGGCAGCCAAUGAAGAGAAAUCUGCAGCCACAGCUGAGAAGAACCAUACCAUACCAGGCUUCCAGCAGGCUUCAUAAUCCUCGGUUCCCCAGACUCACCGGACACCAUCUCCU [SRA]”, the values for the Kd in data set [1], in data set [2] and in data set [3] were 950 nM, 300 nM and 100 nM, respectively.

Consider “GGGCUGCGGAUACCUGGUUUUAUUAUUUUUUCUUUGCCCAACGGGGCCGUGGAUACCUGCCUUUUAAUUCUUUUUUAUUCGCCCAUCGGGGCCGCGGAUACCUGCUUUUUAUUUUUUUUUCCUUAGCCCAUCGGGGUAUCGGAUACCUGCUGAUUCCCUUCCCCUCUGAACCCCCAACACUCUGGCCCAUCGGGGUGACGGAUAUCUGCUUUUUAAAAAUUUUCUUUUUUUGGCCCAUCGGGGCUUCGGAUACCUGCUUUUUUUUUUUUUAUUUUUCCUUGCCCAUCGGGGCCUCGGAUACCUGCUUUAAUUUUUGUUUUUCUGGCCCAUCGGGGCCGCGGAUACCUGCUUUGAUUUUUUUUUUUCAUCGCCCAUCGGUGCU [XIST A-full]”, for which the values for the Kd in data set [1], in data set [2] and in data set [3] were 230 nM, 120 nM and 100 nM, respectively.

Turning to “GCGAGGAGCCUUUCAUCCGAAGGCGGGACGAUGCCGGAUAAUCGGCAGCCGAGGAACCGGCAGCCGAGGAUCCGCUCCGGGAACGAGCCUCGUUCCGCGCCCGCCAUGGAACCGGAUGGUCGCGGUGCCUGGGCCCACAGUCGCGCCGCGCUCGACCGCCUGGAGAAGCUGCUGCGCUGCUCGCGUUGUACUAACAUUCUGAGAGAGCCUGUGUGUUUAGGAGGAA [BARD1 mRNA fragment]”, the Kd in data set [3] was found to be 210 nM.

B1: tRNA-Cys (structured_RNA)
RNA: GGGGGUAUAGCUCAGGGGUAGAGCAUUUGACUGCAAAUCAAGAGGUCCCUGAUUCAAAUCCAGGUGCCCCCUCCAAGCUUG
As to B1, the Kd in data set [4] (setting [9]) stood at 245 ± 78 nM.

B2: XIST A4-6 (structured_RNA)
RNA: GCCGCGGAUACCUGCUUUUUAUUUUUUUUUCCUUAGCCCAUCGGGGUAUCGGAUACCUGCUGAUUCCCUUCCCCUCUGAACCCCCAACACUCUGGCCCAUCGGGGUGACGGAUAUCUGCUUUUUAAAAAUUUUCUUUUUUUGGCCCAUCGGGGCUUCGGAUACCUGCUUUUUUUUUUUUUAUUUUUCCUUGCCCAUCGGGG
For B2, the Kd in data set [5] stood at 132 ± 10 nM.

B3: XIST A7-8 (dimer) (structured_RNA)
RNA: GUUGCCCAUCGGGGCCUCGGAUACCUGCUUUAAUUUUUGUUUUUCUGGCCCAUCGGGGCCGCGGAUACCUGCUU
With B3, the Kd in data set [4] (setting [9]) was 248 ± 68 nM.

B4: XIST A5-8 (structured_RNA)
RNA: GCCCAUCGGGGUGACGGAUAUCUGCUUUUUAAAAAUUUUCUUUUUUUGGCCCAUCGGGGCUUCGGAUACCUGCUUUUUUUUUUUUUAUUUUUCCUUGCCCAUCGGGGCCUCGGAUACCUGCUUUAAUUUUUGUUUUUCUGGCCCAUCGGGGCCGCGGAUACCUGCUU
On to B4, for which the Kd in data set [6] was 127 ± 4 nM.

B5: XIST A1-4 (structured_RNA)
RNA: GCUGCGGAUACCUGGUUUUAUUAUUUUUUCUUUGCCCAACGGGGCCGUGGAUACCUGCCUUUUAAUUCUUUUUUAUUCGCCCAUCGGGGCCGCGGAUACCUGCUUUUUAUUUUUUUUUCCUUAGCCCAUCGGGGUAUCGGAUACCUGCUGAUUCCCUUCCCCUCUGAACCCCCAACACUCUGGCCCAUCG
Regarding B5, the Kd in data set [4] (setting [9]) was determined as 71 ± 4 nM.

B6: XIST A6-9 (structured_RNA)
RNA: GGCUUCGGAUACCUGCUUUUUUUUUUUUUAUUUUUCCUUGCCCAUCGGGGCCUCGGAUACCUGCUUUAAUUUUUGUUUUUCUGGCCCAUCGGGGCCGCGGAUACCUGCUUUGAUUUUUUUUUUUCAUCGCCCAUCGGUGCU
Turning to B6, the Kd in data set [5] worked out at 185 ± 9 nM.

B7: XIST A6-8 (trimer) (structured_RNA)
RNA: GGCCCAUCGGGGCUUCGGAUACCUGCUUUUUUUUUUUUUAUUUUUCCUUGCCCAUCGGGGCCUCGGAUACCUGCUUUAAUUUUUGUUUUUCUGGCCCAUCGGGGCCGCGGAUACCUGCUU
Consider B7, for which, in data set [4] (setting [9]), the Kd was determined as 288 ± 39 nM.

B8: XIST A6-9+ (structured_RNA)
RNA: GGCUUCGGAUACCUGCUUUUUUUUUUUUUAUUUUUCCUUGCCCAUCGGGGCCUCGGAUACCUGCUUUAAUUUUUGUUUUUCUGGCCCAUCGGGGCCGCGGAUACCUGCUUUGAUUUUUUUUUUUCAUCGCCCAUCGGUGCUUUUUAUGGAUGAAAAAAUGUUGGUUUUGUGGGUUGUUGCACUCUCUGGAAUAUCUACACUUUUUUUUGCUGCUGAUCAUUUGGUGG
Consider B8, for which, in data set [4] (label: internal fluorophore-UTP (EMSA)), the Kd is 48 ± 5 nM.

B9: BARD1 mRNA fragment (structured_RNA)
RNA: GCGAGGAGCCUUUCAUCCGAAGGCGGGACGAUGCCGGAUAAUCGGCAGCCGAGGAACCGGCAGCCGAGGAUCCGCUCCGGGAACGAGCCUCGUUCCGCGCCCGCCAUGGAACCGGAUGGUCGCGGUGCCUGGGCCCACAGUCGCGCCGCGCUCGACCGCCUGGAGAAGCUGCUGCGCUGCUCGCGUUGUACUAACAUUCUGAGAGAGCCUGUGUGUUUAGGAGGAA
Take B9: the Kd in data set [7] came out at 550 ± 30 nM; in data set [8], 2300 ± 500 nM.
